Molecular target: the molecule itself
Assay: cryo-EM structure; purified NLGNs at 0.25 mg/ml on holey carbon grids; protein in 25 mM HEPES pH 7.5, 150 mM NaCl; homodimer, C2 symmetry

Protein | stoichiometry N
extracellular domain of human NLGN2 (domain or fragment, UniProt Q8NFZ4 15-677, looked up, neuroligin 2 (NLGN2), human, extracellular domain; Subcloned into the secretory vector pSecTAG2B; also called neuroligin 2; NLGN2 ectodomain; source: Expi293F (HEK293F) cells, transiently transfected, purified (nickel resin, Superose 6 SEC)) QRGGGGPGGGAPGGPGLGLGSLGEERFPVVNTAYGRVRGVRRELNNEILGPVVQFLGVPYATPPLGARRFQPPEAPASWPGVRNATTLPPACPQNLHGALPAIMLPVWFTDNLEAAATYVQNQSEDCLYLNLYVPTEDGPLTKKRDEATLNPPDTDIRDPGKKPVMLFLHGGSYMEGTGNMFDGSVLAAYGNVIVATLNYRLGVLGFLSTGDQAAKGNYGLLDQIQALRWLSENIAHFGGDPERITIFGSGAGASCVNLLILSHHSEGLFQKAIAQSGTAISSWSVNYQPLKYTRLLAAKVGCDREDSAEAVECLRRKPSRELVDQDVQPARYHIAFGPVVDGDVVPDDPEILMQQGEFLNYDMLIGVNQGEGLKFVEDSAESEDGVSASAFDFTVSNFVDNLYGYPEGKDVLRETIKFMYTDWADRDNGEMRRKTLLALFTDHQWVAPAVATAKLHADYQSPVYFYTFYHHCQAEGRPEWADAAHGDELPYVFGVPMVGATDLFPCNFSKNDVMLSAVVMTYWTNFAKTGDPNQPVPQDTKFIHTKPNRFEEVVWSKFNSKEKQYLHIGLKPRVRDNYRANKVAFWLELVPHLHNLHTELFTTTTRLPPYATRWPPRPPAGAPGTRRPPPPATLPPEPEPEPGPRAYDRFPGDSRDYSTELS | 2
full-length human NLGN3 (natural protein, UniProt Q9NZ94 38-848, looked up, neuroligin 3 (NLGN3), human, full-length gene in pCDNA3.1; UniProt ID Q9NZ94 printed for NLGN3; also called neuroligin 3) QAPAPTVNTHFGKLRGARVPLPSEILGPVDQYLGVPYAAPPIGEKRFLPPEPPPSWSGIRNATHFPPVCPQNIHTAVPEVMLPVWFTANLDIVATYIQEPNEDCLYLNVYVPTEDVKRISKECARKPNKKICRKGGSGAKKQGEDLADNDGDEDEDIRDSGAKPVMVYIHGGSYMEGTGNMIDGSILASYGNVIVITLNYRVGVLGFLSTGDQAAKGNYGLLDQIQALRWVSENIAFFGGDPRRITVFGSGIGASCVSLLTLSHHSEGLFQRAIIQSGSALSSWAVNYQPVKYTSLLADKVGCNVLDTVDMVDCLRQKSAKELVEQDIQPARYHVAFGPVIDGDVIPDDPEILMEQGEFLNYDIMLGVNQGEGLKFVEGVVDPEDGVSGTDFDYSVSNFVDNLYGYPEGKDTLRETIKFMYTDWADRDNPETRRKTLVALFTDHQWVEPSVVTADLHARYGSPTYFYAFYHHCQSLMKPAWSDAAHGDEVPYVFGVPMVGPTDLFPCNFSKNDVMLSAVVMTYWTNFAKTGDPNKPVPQDTKFIHTKANRFEEVAWSKYNPRDQLYLHIGLKPRVRDHYRATKVAFWKHLVPHLYNLHDMFHYTSTTTKVPPPDTTHSSHITRRPNGKTWSTKRPAISPAYSNENAQGSWNGDQDAGPLLVENPRDYSTELSVTIAVGASLLFLNVLAFAALYYRKDKRRQEPLRQPSPQRGAGAPELGAAPEEELAALQLGPTHHECEAGPPHDTLRLTALPDYTLTLRRSPDDIPLMTPNTITMIPNSLVGLQTLHPYNTFAAGFNSTGLPHSHSTTRV | 2
